Measured values: the supplement of paper PMC9170038

Test system: MS2 coat protein
Assay: apparent KD of MS2 coat protein; designed switch direction (-1 OFF switch, 1 ON switch): -1; higher = weaker reporter binding
How it was run: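 RNA switches sharing common flanks were transcribed by stalled E. coli RNA polymerase on Illumina chips. A doubling series of SNAP-549-labelled MS2 coat protein, from 0.7 or 1.5 nM to 3 µM, was applied in Tris-HCl pH 7.5 buffer with KCl, MgCl2, BSA, DTT, tRNA and Tween-20. Each step lasted 0.8–1.5 h at the bottom of the series and 10–20 min at the top. Normalised cluster fluorescence was curve-fitted, giving apparent KD as the per-design median over clusters.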

[1] = Eterna round: R95, input ligand: microRNA oligo, concentration not stated
[2] = Eterna round: R95, input ligand: FMN 200 uM
[3] = Eterna round: R95, input ligand: none
[4] = input ligand: microRNA oligo, concentration not stated

Sequence | apparent KD of MS2 coat protein (input ligand: FMN 200 uM) [nM] | apparent KD of MS2 coat protein (input ligand: none) [nM] | apparent KD of MS2 coat protein [1] [nM] | also measured
CAUCCACAUGAGGAUCACCCAUGUCAGGAUAUUGUACAAACCCAAUCAUAUUGGGCGUCAAGAAGGGACAUUCU [EX1 B.5] (Eterna round: R97, puzzle: Exclusion 1) | 22.8 | 12.4 | – | –
CAGUACUGAGGAUAUACAUGAGGAUCACCCAUGUGUUCCGGCUAGGAUACUAGCAAAGGAAGAAGGCAGUACUG [Mat - Exclusion 3 - Eli Mod - D23] (Eterna round: R97, puzzle: Exclusion 3) | 22.7 | 17.1 | – | –
CCUCUACAUGAGGAUCACCCAUGUGAGGAUAUAAGAUUGCGAAUUCCGCACUACGGUCUUAGAAGGCGCGUGGA [Riarve] (puzzle: Exclusion 1) | – | – | 15.7 | –
GUCGAGUGAGGAUAUGGUGAGUAGUGCCUGAGCGCUGCUCACCAGAAGGCACAUGAGGAUCACCCAUGUAUGUC [JL-ex4-2.04 denovo] (puzzle: Exclusion 4) | – | – | 12.3 | –
UUUUGUUUUUUAUUUUUUAACAUGAGGAUCACCCAUGUAACGAGCAGAUCUUCAUGCAAGCUUUUUGCUCGUCUUAU [Sensor v3 - Turn-off variant 1 - 42] (puzzle: Sensor v3, turn-off variant 1) | – | – | 16.1 | apparent KD of MS2 coat protein [2]: 42.2 nM; apparent KD of MS2 coat protein [3]: 60.6 nM
CCAAGCUUAUUCAUUAACAACAUGAGGAUCACCCAUGUAUAGGCAAUUAUGUUUGGGCUCUUUAGUGCUCGUCUUAU [Sensor-V1 #23] (Eterna round: R97, puzzle: Sensor, turn-off variant 1) | 16.1 | 15.5 | – | –
GAGAAGGUAGGAUAUACGAAUAAAAAGGGUAGAAGAAGAACACAUGAGGAUCACCCAUGUAGAAGGACCAAGAG [Mat - Exclusion 2 - Mod of my Tesla design - D22] (puzzle: Exclusion 2) | – | – | 17.2 | apparent KD of MS2 coat protein [2]: 44 nM; apparent KD of MS2 coat protein [3]: 17.6 nM
UCAUAUAACGAGGAUAUGCGGGCCGUUUUCCCAGCAGAAGGCGUUACAUGAGGAUCACCCAUGUACCCGGGUAA [EX6 A.29] (Eterna round: R97, puzzle: Exclusion 6) | 18.1 | 515 | – | –
CUGAGCUGAGGAUAUACAUGAGGAUCACCCAUGUAAAGUAGCUUGCGUACAGGCAGAUGUAGAAGGCAGUUCGG [Mod of JL 2 - Jieux - Exclusion 3] (Eterna round: R97, puzzle: Exclusion 3) | 34.7 | 20.5 | – | –
GCUGGUAUAGGAUAUACGUAAGACGUGGUCCACAGUUAAUUACAUGAGGAUCACCCAUGUAGAAGGAUGGAAGC [Eternabot (L2) Solution 95] (Eterna round: R97, puzzle: Exclusion 2) | 298 | 65.8 | – | –
UAAUAAAAGGAGGAUAUCGUAUCGGAAACGAUACGAGAAGGCUUAACAUGAGGAUCACCCAUGUUCCUCAAUAA [Mat - Exclusion 6 - Eli Mod - D90] (puzzle: Exclusion 6) | – | – | 28.6 | apparent KD of MS2 coat protein [2]: 59.3 nM; apparent KD of MS2 coat protein [3]: 32.6 nM
GCGGUACAUGAGGAUCACCCAUGUUAGGAUAUUCUACGUCUCUAAUCUGAAACGCAAGGAAGAAGGAGCGUGGG [Eternabot (Original) Solution 21] (Eterna round: R97, puzzle: Exclusion 1) | 83.7 | 28.2 | – | –
GGUCAAGAACAGAUCCGCGCUGUCCUUGACCGCUCAUUUACAUGAGGAUCACCCAUGUUUUUUGCUUGUCUUGUUAC [Tixegeis] (puzzle: Sensor v3, turn-off variant 2) | – | – | 96.7 | apparent KD of MS2 coat protein [2]: 17.4 nM; apparent KD of MS2 coat protein [3]: 16.5 nM
AGAUAGUGCUGAGGAUAUCUUAAUAGAAAGAAUAGAGAAGGCGGACAUGAGGAUCACCCAUGUGAGGUCUUGAGACUACAUGGU [Prohibition 36 - Jieux - Exclusion NG 1] (Eterna round: R96, puzzle: Exclusion NG 1) | 366 | 135 | – | apparent KD of MS2 coat protein [4]: 71.6 nM
AGAGAAAAUCUAGGAUAUGUGUAUGCCGCGUGCGCAGAAGGAGACAUGAGGAUCACCCAUGUAAAGAGACAGAAGACGACCAAA [Matt's Exclusion] (Eterna round: R96, puzzle: Exclusion NG 1) | 55.7 | 67.5 | – | apparent KD of MS2 coat protein [4]: 38.7 nM
GUCACAUGGACAUAGGAUCACAUGAGGAUCACCCAUGUGACUAACAAGCUUUUUGCUCGUCUUAUGUCCAUGUGAAA [Stov1/15-A2] (Eterna round: R97, puzzle: Sensor, turn-off variant 1) | 14.1 | 13.2 | – | –
AGUACAAUCACGAAAGUGAUUGUACAAUAAGCUUGUGAAACAUGAGGAUCACCCAUGUCCUCAUAAGCUCGUCUUAU [Mat - Sensor v2 -ver2- JL mod - D69] (Eterna round: R96, puzzle: Sensor v2, turn-off variant 2) | 16.1 | 18.4 | – | apparent KD of MS2 coat protein [4]: 416 nM
CUUAAACAUGAGGAUCACCCAUGUCAGGAUAUGAUACUAUGUACUUCGGUACAUAGUAUCAGAAGGGAUAUGAA [Ex1-3: 64] (puzzle: Exclusion 1) | – | – | 43.1 | –

Sequence | apparent KD of MS2 coat protein (input ligand: FMN 200 uM) [nM] | apparent KD of MS2 coat protein (input ligand: none) [nM] | apparent KD of MS2 coat protein [1] [nM] | also measured
AGCAUGGUAGGAUAUACGGAACAUUAGGGUUUGUUAUGUGGACAUGAGGAUCACCCAUGUAGAAGGGCCGUGCA [Mat - Exclusion 2 - Mod of JL - D80] (puzzle: Exclusion 2) | – | – | 32.3 | –
AUUGUGUGAGGAUAUUAGUAGUAAAUAAAUAAAAUUAUUACUGAGAAGGCACAUGAGGAUCACCCAUGUUCCUU [Salish 062 v5] (Eterna round: R97, puzzle: Exclusion 4) | 131 | 18.9 | – | –
AUUAUAAAGUCAGGAUAUCGGUUUAUAAUAUUACGAGAAGGGACAUGAGGAUCACCCAUGUAUUAACACUACUAUGUCAACUAA [1st Attempt] (Eterna round: R96, puzzle: Exclusion NG 1) | – | – | – | apparent KD of MS2 coat protein [4]: 33.3 nM
UCUUAUUGAGGAUAUACAGAUUAUUACAUGAGGAUCACCCAUGUUCUUCAAUGUAUAUAUGUAGAAGGCAGAGGAU [Mat - Exclusion 5 - JL Mod - D12] (Eterna round: R97, puzzle: Exclusion 5) | 217 | 68.6 | – | –
AAGUACCGUCACGAUAGUGAUGGUACAACAAGUGGUGAAACAUGAGGAUCACCCAUGUCCUCAAUUGCUCGUCUUAU [Sensor 3 - 85] (puzzle: Sensor v3, turn-off variant 2) | – | – | 231 | apparent KD of MS2 coat protein [2]: 1030 nM; apparent KD of MS2 coat protein [3]: 999 nM
UUCACAUGGACAUGAGAUCACAUGAGGAUCACCCAUGUGAAUAACAAGCUUUUUGUUCGUCUUAUGUCCAAUAAUAA [Stov1/14-D1] (Eterna round: R97, puzzle: Sensor, turn-off variant 1) | 14.1 | 13.1 | – | –
CUUUAGCUAGGAUAUACAUGAGGAUCACCCAUGUUAGCGGUCAAUUGGGCCGCGGGUUGUAGAAGGAGCAUUAA [Aniscerile] (puzzle: Exclusion 3) | – | – | 28.6 | –
AAAAUGUAAGGAUAUAGCCGGAACCCAGGGUUUGGACCCGGCUAGAAGGUACAUGAGGAUCACCCAUGUAAGAA [Excls4-VII] (puzzle: Exclusion 4) | – | – | 17.4 | –
CUUAAUUGUCAGAUGGGUGACAUGAGGAUCACCCAUGUCACAAGCUUUUUGCUCGUCUUAUAAUUAACCCAUCUGAC [Stov1/11-A4] (Eterna round: R97, puzzle: Sensor, turn-off variant 1) | 13.5 | 13.4 | – | –
UUUUUACAUGAGGAUCACCCAUGUGAGGAUAUGAGGGUUAGCUUAAAUGGGCUGACUUUCAGAAGGCACAUGAA [JR_Ex1_Sub059] (Eterna round: R97, puzzle: Exclusion 1) | 280 | 128 | – | –
GCAUGCUAUGUCAGGAUAUACCUGUGGAUACAUAGGUAGAAGGGACAUGAGGAUCACCCAUGUCCUAAUCAUGC [Fiskers BMX 4 - 24] (puzzle: Brourd's mod of Exclusion 4) | – | – | 12.1 | –
GCUUGUAGAGGAUAUACAAGGGCCUUAGCGAAUAACACCGCACAUGAGGAUCACCCAUGUAGAAGGCUACCACC [Tezausesti] (puzzle: Exclusion 2) | – | – | 15.2 | –
CCACUGUCAGGAUAUCGUGCAUACAACGAAAGUUCUAUGUGCGAGAAGGGACAUGAGGAUCACCCAUGUAAACG [Omei Ex4 A28] (Eterna round: R97, puzzle: Exclusion 4) | 582 | 138 | – | –
GGAAGAAUGAGUAGUCCUCAUUGAAGAGAACAGUAAGAAACAUGAGGAUCACCCAUGUAAGAACAAGCUUUUGCUCA [JR_Sv3TOV2_Sub002] (puzzle: Sensor v3, turn-off variant 2) | – | – | 699 | apparent KD of MS2 coat protein [2]: 168 nM; apparent KD of MS2 coat protein [3]: 259 nM
UUUGUCUGUGUGAGGAUAUACUUUGUUUGGUCGUUGUAGAAGGCACAUGAGGAUCACCCAUGUAUUUUGUUGUG [JR_BME4_Sub015] (puzzle: Brourd's mod of Exclusion 4) | – | – | 26.9 | –
CGAGCUGGAGUGAGGAUAUCGUGUUCGAAAGAACGUGAGAAGGCACAUGAGGAUCACCCAUGUGAUUCAGCUCG [Omei Ex4B A4] (Eterna round: R97, puzzle: Brourd's mod of Exclusion 4) | 28 | 20.1 | – | –
UUUUAACAUGAGGAUCACCCAUGUGAGGAUAUCGAAAUUUAUAUUAAUAUUUUUAUAUCGAGAAGGCACAUUUU [JMF 72] (puzzle: Exclusion 1) | – | – | 84.7 | –
